# Test system: APP751wt
# Assay: cell-free β-secretase assay, β-NTF ELISA, APP751wt substrate
# Assay type: biochemical, human
# Details: membrane extracts of transfected HEK293 cells, incubation up to 8 hours
# Procedure: The β-secretase assay consists of two different parts, an incubation or reaction phase to generate β-NTF and an ELISA part to capture and measure the β-NTF generated by β-secretase. The β-secretase ELISA was performed as follows. Each well of a 96 well plate containing a flat bottom (high protein binding, Corning, N.Y.) was coated with 100 μl of the monoclonal capture antibody 8E5 (at ˜8-10 μg/ml) (Johnson-Wood et al. Proc. Natl. Acad. Sci. USA 94: 1550-1555 [1997]). The plate was then covered with parafilm and incubated overnight at 4° C. or alternatively for 2 hours at 37° C. […]
# One hundred μl of a 1:5000 dilution of a goat anti rabbit IgG-HRP in Antibody-Conjugate Buffer was then added to each well, and the plate incubated at room temperature for one hour. […] After sufficient blue color had developed, the reactions were stopped by adding 100 μl of 5N H2SO4 to each well, and the amount of βNTF was determined by reading the plate at 450 nm in a Softmax spectrophotometer.
# Equal amounts of membrane extracts from either mock, BACE or BACE2 transfected HEK293 cells were incubated with partially purified full length APP751 sw or APP751wt for the indicated times. The formation of β-NTF was then determined using the respective β-NTF specific ELISA as described in General Methodology.
molecule,measurement,value
"BACE2: human aspartyl protease, close homolog of BACE (SEQ ID NO: 2), expressed from pcDNA3.1(−)/BACE2 in transfected cells (protein) MGALARALLLPLLAQWLLRAAPELAPAPFTLPLRVAAATNRVVAPTPGPGTPAERHADGLALALEPALASPAGAANFLAMVDNLQGDSGRGYYLEMLIGTPPQKLQILVDTGSSNFAVAGTPHSYIDTYFDTERSSTYRSKGFDVTVKYTQGSWTGFVGEDLVTIPKGFNTSFLVNIATIFESENFFLPGIKWNGILGLAYATLAKPSSSLETFFDSLVTQANIPNVFSMQMCGAGLPVAGSGTNGGSLVLGGIEPSLYKGDIWYTPIKEEWYYQIEILKLEIGGQSLNLDCREYNADKAIVDSGTTLLRLPQKVFDAVVEAVARASLIPEFSDGFWTGSQLACWTNSETPWSYFPKISIYLRDENSSRSFRITILPQLYIQPMMGAGLNYECYRFGISPSTNALVIGATVMEGFYVIFDRAQKRVGFAASPCAEIAGAAVSEISGPFSTEDVASNCVPAQSLSEPILWIVSYALMSVCGAILLVLIVLLLLPFRCQRRPRDPEVVNDESSLVRHRWK",β-NTF formation (β-secretase cleavage in vitro),cleaved APP751wt to a similar extent as BACE
